# Laboratory results reported in the DeepSol protein solubility set.
# Experiment: soluble on expression in E. coli; label from the status in PepcDB or PDB records
row,Sequence,soluble on expression in E. coli
1,MAHHHHHHMHLLSFLSFIIWFIHCTAKRHEYSIKKYFLNSHNFCKIKPDPFRKDTLKKRLYSSDGIKDEIIIGTRDSPLALKQSEKVRKKIMSYFKKMNKNINVTFKYIKTTGDNILDSKSVGLYGGKGIFTKELDEQLINGNVDLCVHSLKDVPILLPNNIELSCFLKRDTINDAFLSIKYKSINDMNTVKSVSKTEDIHHINKKDSDHNNDTLCTIGTSSLRRRSQIKNRYKNIYVNNIRGNINTRIEKLYNGEVDALIIAMCGIERLIKKANLKHLLKNKEQKNICQPFLLKCNNKKCIDLCHVNIQKLNKNLIYPALGQGIIAVTSHKKNYFISSLLKNINNKKSEMMAQIERSFLYHIDGNCMMPIGGYTNMRNEDIYLHVIINDIHGYNKYQVTQKDTLYNYKEIGPNAAIKMKEIIGTEQFNKIKAEAELHLLNNK,not soluble
2,MAHHHHHHMHLQIVCLTDEVREMYKHHKTHHEGDSGLDLFIIKDEILKPKSTTFVKLGIKAIALQYKSSYYHKSEANANANANANGKDAPVGMGGVNAKESCAPHQKNPEIVNTSYLLFPRSSISKTPLRLANSIGLIDAGYRGELIAALDNTSEEEYLIKKNDKLVQLVSFTGEPLSFELVDELDETSRGEGGFGSTSNK,soluble
3,MAHHHHHHMHNFAKIFRSNFIDINAANKFEIFLKTILRIYKTPARTHLLAHAADISAIYAVRQIYNYMKNDEEGRTVLKEKPLLIRQDIQFNELKKLPKNTLGYKYMKFLETYKLHAHDREVSHFFTDLNYSYILTRYRQIHDIGHVVYNLNISIESEAALKLIELVQTKLPITLLAILVAPFMTPIYRFQYIFKDSLPSNFLSPNFDFTYTDAYNYVDELSIKQYEYNLTDYFHVEKRNDRNFYTKMYQHYFDNINNSSAVRGSIIYGFENKSSNDIIYDQPNREYIFLKNLKKKYLLFQYKPRKNLLRELYPWAYMAGVSTTKPLHSIHIEKWLDKDIDLFRRTYNISPLPDHLNLMAGIN,not soluble
4,MAHHHHHHMIEHLNLWLPWKHRKPMWPYPQKNAMPSVFPLEFTTLGEGVVTFSCLCLAAVLAVQEVLTPSHGFPTVLVAFPHKRGGVSSALLYSKVVEAFIQSLRSESALVEAVTVRHMARAALQALNTIINACFSEQYPLYTMAQLLLSEGKAEAKDATHDGGMLGAVDLVLSIDPLSCGGDILHSETQLVMPTPFAIRSVGRCTPGAARQQTNVKLPSALEVTDAALLQMPGAGESSTGRRLSACILERSQVLLTLLK,not soluble
5,MAHHHHHHMIICNNNVNHFWKNIKKNIRLDGRTFEDSRNVCINFLKDYGHVEISIGFTKVICKITSEIVKPHDRKLKEGILKINLDIDNFIEDNENSDNMSDECLEIKNIIDRVLKTSNIINFESLCIIPGKKVWCICINIMVIENDGNLTDACYLSAYCGLVHFKNHQVRVIKNGDIIIDKEEINYSPLSILNSPIVTTFAYYEEHDVCLIDPCLHEEEFMSSKISIALNKNGNLISLLKPGGIPLACSHIMESIEIAKKRILTILKILEDTLEEDKNIRSYLTKRNLHVKYSSAPVTIRYDNSFKLKPDISLERYTKNTLIFEDTIKKIEQYIQYNQVQECLNNMNVKLEENDQEEIETCTLKGEGNLNNPNFIDPMRNTNLLNPTDITIIKRQEFVDNHYDANNNKYNTQANKTFKKELIDFSNLLTQNHKKSNNLSNNQKDISEQHDNSQESSDDASTIRSDESSDIDFSVAINQNIKKKK,not soluble
6,MAHHHHHHMILRTAGASNVYSVFAYPGTGKARDMLTTETADTSGSESGNLTNVRARHCAHFQFNKMCNLGESCNFIHSLVPYVQRLSMSSQGPLYNSIVTQRPLLMPSTSMAHFSRFPNGNNNNGVVSSYSMEFMQPSMLHVSPQTQQQQQQQKQQQKQQQKQLHQQPQHAMPPPPPTVSHLIPSPQPSEHLMYQSNMSMMSLPMYMSSPISSTWDGVRYGANYQ,not soluble
7,MAHHHHHHMIYKAYGSPENNSGNTHMYSMYAPPNAYVQGQGGSRTMYGYAGTGGHGSGHPFGYHANPSMGVTYEYNGGINVHHNGSAYRVGGGTNGRDRGGDVVSLRNLHGYDQQATSDYEVHDNQLKAPVVVTPATVVSTLGSARLFSKPPKPIVYGSRCVVRICDAFQEGRCAAGDRCHDIHVRPEYLAETRMEMSSWLFDRECEFRQTMEMDSEKTFSIFVADLKEVVEVPINSLVFTKGLYVDPATRAKRARGAGNHAHVHAMMQVPTSCGLYSTDPLQCKWERWCNQVHIDHRWMQVKKAEFDQWFIELQNRYFSLAPDDTFTVHDPQLKSSISLPKFSIAGFSRGLFQGSMKKLASVCLLFQRGKCTAGSCCNQIHVFPQYLSLAREFAAMEQSPDALPEEKQRLRREMELLRGPLMKQEKQETAAMESASLPNVVSSANEGTHSDAMDIKAAAEEDLASCGALFEHVQVDEDVEPVSHLVSANTSLTRRMNASAPDISLSVARHMNSDGSYSFNPYGSVTSLPDGSTSFNRFPGTRGSGQPMDGNGSVQYTPGSVQLLSTDTKGMRRLVALVSPESGNGAVELHRNGDDMGIGGNAGDGGTATVAHDRAPPFAAGHRSNGGYRAVAHPLGDEGGRYDSGTQGEQSCSLHPLDFDASWHFSPTPLLGFDASTTSTHRNGSIRDEDPAMHAHLRLTASNSSYIYPGSSTTSQQNLLSTPMHRGVTSNATTAARVRLAASAASSRTHAHRSATSLPDSSTTNPAMGGSVSSMPTARPTFVGEQLTGTR,not soluble
8,MAHHHHHHMKDEQISCYYLTEKGKNKCFKNIKLITFDLDHTIWNIDALLNYADNECYKYMEQNYKRLYDYLSKEYALSMTNLVKELLERNIDMNKDGVQILTRIRTDALKYLAKQTNYDEIKFASEIQKLWKEKKKDVHLFISPGTLEYLRELKNRGYILGAITNGDSDVNEIKFLNEIFSFVVRSMDYNFAKPNVEIFNIAENLLKEKNINFHVDEWLHVGDDVYTDIMGAKNKNINCAWITMFREGREISHKEWYSYLKLKYEQNDNKQTLSQYDPYADGLFAKFRKKDVVLPFDYIDIEIRHCRDLDSILA,not soluble
9,MAHHHHHHMKEKYTITPLARRTPNGVLTQVLTEARREAAERLRGMQEMKFTICTDIEEVLFKGRVHVNEMRLNDFLTREPDGRGVVDTNRDVLLEEFFKDPTKYIRDKGALNEIQAFGHYLSMKRAVKGEVIFDEDIRELCDRVSTTYRGGHWLLRR,not soluble
10,MAHHHHHHMKEYLAQKEYRAKEYRAKDYPAKDYSGKKEYTSKKAYTPKKEYTAIRGCAVENAYFDEKAYTGCKANQGEEAHKNDASVVEGGKSKKNEERVLAGMIKILEEMKESDDASNAVDPGFN,not soluble
11,MAHHHHHHMKNGKPMGGRETQKQKQKQKQVTLLTWINRANQPRQLTRKTKKAHEKQEERRIWLGAAKRLPQKMPQSMRCNYDIRTHINTHIHKHSHSHSHQLQTYTRTHHLSQKEMKRNEPQDIIRFHSNTQEPAGSTSSHVVTRLVITLLLLCTTQICPTSTEAVERGKQGALLFR,soluble
12,MAHHHHHHMKPKIPFIIEIFSSFGDNYSTNYIEKEMNLDIMNVVKNYDLDTLVEENKEANGTPHVTVDDAVDQIMDRFYDCSVFHKIILLDVSILFERVE,not soluble
13,MAHHHHHHMKQLLSPKTARHSRLFRLANRLAGQKGAPESDGERLSWVNSHVKRTQDMELSREEEALRERIMPLEVGDNAVVSNSQATHGNLFHFREYPMYPGEYVPAGHNTLSSLRDELRSDLTAQSLKEAWMRVSGGMYFKSIDDYYASVDGLDQEQLGEIVSALLPDLRKYEAQALVTKVLESLSKPADSPSRQLSRTITADAVGLDNAPGHYTNFLEWMGRMTETKAFKTEHALFEFSRRKFNREDVRVMFENYNLMSKATLEADSTDSYSHFYTVLHDFSRKVAGEDTRHQIGVRIDPAEVDPETGIAVGHGRADGQKYMFTALIRENRDHNGSVTLLGKPLSVAFDDKSWLMEMVLMPFDEAKLDFRDFDVNLISEGKAMPSFANEIAAFACRMAVANAITKLLPLARIPLKKAGLLSVDRRREPGQFPGFVDGKKNKRKFAKR,not soluble
14,MAHHHHHHMKTFRYLTITGDTITLRRGARHVMHLLLTLERAPYDTRLNLEFVSLAHMRQLNYKYKGLDRPTDVLTFAPAGEADSFVNDLLFGDFLERGDGDKGTGATLTASPTCAAAVGAGPNALTQSIIRGELVDLGNIFVSLDYMRLRCRRYPSTTLPLAPYLHAALVHATLHALGYDHTSRALLQQMARREQQLGRQLAMIARQHPRCLPPLNIWDSM,not soluble
15,MAHHHHHHMKTLKEALTNVLSSLNIAEKKEILNVLYHILQKIIENPSRAKFRSLKKDNKTFVNKLLQFKESDELLRSLGFEEETEIWFFPVKNDHKLSSNLTEIRAFIKEHVNTIYNNQDSIFETGTASSSAHLPTDEKNVTENTSNLGDTCNNSEGLTLGGLSKRRLEKERLELLSQKENTIKLLQEHADKWIIQITGAENTLYSNETFQMQFKFTEKYPIESPEVIFLGQPPIHPHIYSNGHICLSILYDHWSPVLSVNSICLSIISMLSSCKKKRKPLDDILYCSTGPRISPKNMKWMFHDDKV,not soluble
16,MAHHHHHHMLRARTLLLFMRPEAAAAELRRLLPLLSFAGRRTGAATHSVASLIVSTAYSATAARSVTNHSRDCPVLSKKLPLPLIGKESSFAARPCLNCVRERVHYVSSLSFCDYFEKKCAEAQHYRNGASSNGVVGTAALPKLLLEAIERSYGSVAAFKDSVMLHSTGAMSPGRLWIVYTPPISGSEHGAVRLLNLPACKVPLVHGLWPLAVINMTEKRLCEQIACRSGKGGDAVDADDAPAWRHAARTRKTLGALATTEEGNDRAGNVAQVKLSSIQSAIAEEALCAMNWKFVETQLTSALAYYSSKERTQTQREHRKEKEHVAAVRAMSQLKNSGAVIHATDSVTITSSNSFVASSASEPNLSAAAAVTSSSAKAENSALGEANTQTAAVAAPSAEATAANTASNSAQPADNTATGAAAAEPRAVQQADGTWEYHYNNGSVTKALPDGTKVFQTESLTTTVFVNGDTLFEYPNNTSILDRADGVRVITYADGTKKEERLK,soluble
17,MAHHHHHHMLRLLPLRLASKVTAGNAKNQAGHPRRKAKLFHVIPGTPVTPMEKLKEQRRRYGQDRHSRLPEYRPGKNVRLDPNTFTLYATTKGVMTIRESRINPKYKWLEVEPDIQKVYRSSQMRRALAARGMTSQMVEKNEHYRSEMDLLLEPHWRQRVMRVPKATERFKDPNLFVRGVITELTPMDRYCYE,not soluble
18,MAHHHHHHMLRLSFVHRKSRHQNVLRRGRPHMQKYRELNRWQRQAQGISKWDQSQSHRPLPYVERFNPEGVGVTRGTSAFAWQWWHTQQPWLPNVAPPNHTGRKITNTSGTTEETAKPPAWDEEFTSVVLSMTDSEIREYLLDKLTDVIFAETQRDGYELRRLDFEGNPLTELPERRIIESFVFEEETLRERVIYQVVEGVFRLSPTSADRRELRSVETIIDYVLTHVSAARPDSRPRVTPAALAVMQQCPLQPELGFVHALPVDSRDEILQEWERMHHLDWQFGKAVYVPRSREETRGNLTWLREERHNAERVEFMKRVASGEAKAEHMRRIAEAACTERPETMHG,not soluble
19,MAHHHHHHMLRRVLSRGPLPQSLSVGPTSKLTVNKGKLAKSRGVHVHFLTIAECAAAAGDASAPIPPGFTGKAGEVDFQTLWTTAQDPATAESVLRKSGRKAAGARRAAEKPAELVAGMGAHSTVRDYRLAVTAAVRKAKMCNAAWVSLHPPKQDVFTMTDPYHPPQRLKSHEMVEKTAIFAVTGAYQYDRLKSGTLASKDSAQTGRTRARRAESRAKPPAAPQPPMELVVASSNAQAVRAGEVIGHCVNEARNLGNLREDEGVPEFYAEWAKKYMIPEGIKVRKVLRGQQLEEAGLHLMYNVGRGSRYEPYLVVLEYIGNPRSSATTAIVGKGVTFDCGGLNIKPYTSMETMHSDMMGAATAFCTLKAIAKLQLPINVVAAVGLVENAIGPESYHPSSIITSLKGLTVEVLNTDAEGRLVLADVLTYVQKYAPLDKKPTRIIDLATLTGAIIVGLGSRRAGLFSPSAMLANSLMAAGTQCGEELWPMPIGDEHKDMMKGGIADLINAAPGRQAGSCTAAAFLSNFVEPEVQWAHLDIAGVADVGDKPKGYEPAGVTGFGVQLLVDFLRHNKP,not soluble
